Measurements: patent US20170073395A1 (Pfizer, published 2017)

Assays:
[1] = biological target: T1, mRAGE (mouse, UniProt Q62151 24-342, limits assumed); assay: Biacore specificity assay: IgG immobilised (about 300 RU), antigen m-RAGE-fc injected at 500 nM
T1 construct: also called mouse RAGE
Procedure: (§1) Biacore specificity analyses were performed using the T-200 biosensor, series S CM5 chips, an amine-coupling kit, 10 mM sodium acetate immobilization buffer at pH 5.0, 10× HBS-P running buffer and NaOH for regeneration (GE Healthcare). A predefined ligand (IgG) immobilization program was set up to immobilize approximately 300 Response Units (RU) on the flow cell for each IgG to be tested. For Anti-RAGE and anti-A33, a panel of fully-purified recombinant target and non-target antigens were diluted in HBS-P running buffer to a final concentration of 500 nM. Four groups of antigens were examined, including: cell membrane proteins (mTRKB, hTRKB, mEGFR, hEGFR, hFceR1, hIL-21R, mICAM1, mICAM2, hICAM1, hCD33, hLAMP-1, hLOX-1, and), soluble signaling molecules (mTNFa, hVEGF, hCXCL13) and albumins (BSA, HSA and MSA). These proteins were injected at 50 μl/min for 3 min, followed by a 5 sec pulse of 20 mM NaOH for regeneration of the chip surface. For pTau, a series of pTau-derived phosphorylated and non-phosphorylated peptides were flowed, as in Shih et al.³. All sensorgrams were analyzed using the Biacore T-200 evaluation software.

[2] = biological target: T2, RAGE (cognate target of the anti-RAGE antibodies; species not stated at the place) (Homo sapiens (Human), UniProt Q15109 23-342); assay: Biacore T-200 SPR, IgG immobilised (~100 RU), purified target protein injected
T2 construct: not shown: Carrier or tag of the soluble construct
T2 sequence (Q15109 23-342 limits assumed): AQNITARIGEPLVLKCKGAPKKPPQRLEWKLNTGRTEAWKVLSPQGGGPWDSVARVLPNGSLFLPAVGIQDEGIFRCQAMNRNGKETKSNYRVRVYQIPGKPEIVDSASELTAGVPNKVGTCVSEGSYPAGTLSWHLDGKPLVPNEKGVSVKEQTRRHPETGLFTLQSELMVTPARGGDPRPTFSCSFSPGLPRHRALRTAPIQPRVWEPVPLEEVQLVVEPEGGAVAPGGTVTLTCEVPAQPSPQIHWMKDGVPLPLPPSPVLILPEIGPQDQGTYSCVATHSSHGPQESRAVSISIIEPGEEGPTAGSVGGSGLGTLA
Procedure: (§2) Biacore analysis was performed using the T-200 biosensor, series S CM5 chips, an amine-coupling kit, 10 mM sodium acetate immobilization buffer at pH 5.0, 10×HBS-P running buffer and NaOH for regeneration (GE Healthcare). Kinetic assay conditions were established to minimize the influence of mass transfer, avidity and rebinding events. A predefined ligand immobilization program was set up to immobilize approximately 100 Response Units (RU) of IgG on the chip. Purified target proteins were diluted in HBS-P running buffer to a range of final concentrations and injected at 50 μl/min for 3 mins. Dissociation was allowed to proceed for 10 min followed by a 5 sec pulse of 20 mM NaOH for regeneration of the chip surface. All sensorgrams were analyzed using the Biacore T-200 evaluation software.

[3] = biological target: T3, hLAMP-1 (human, UniProt P11279 29-382, limits assumed); assay: Biacore specificity assay: IgG immobilised (about 300 RU), antigen injected at 500 nM
T3 construct: Non-target panel protein
T3 sequence (looked up): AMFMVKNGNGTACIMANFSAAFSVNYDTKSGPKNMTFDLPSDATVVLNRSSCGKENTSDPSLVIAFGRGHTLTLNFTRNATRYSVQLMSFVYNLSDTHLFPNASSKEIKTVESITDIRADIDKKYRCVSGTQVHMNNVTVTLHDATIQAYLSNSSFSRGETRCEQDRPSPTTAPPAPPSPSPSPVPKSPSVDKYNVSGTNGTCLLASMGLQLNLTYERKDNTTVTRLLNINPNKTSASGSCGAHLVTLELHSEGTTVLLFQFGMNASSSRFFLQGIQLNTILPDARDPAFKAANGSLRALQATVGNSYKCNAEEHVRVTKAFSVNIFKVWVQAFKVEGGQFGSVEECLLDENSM
Procedure: as §1

[4] = biological target: hLOX-1 (human, UniProt P78380 61-273); assay: as above
Procedure: as §1

[5] = biological target: T4, hEGFR (human, UniProt P00533 25-645, limits assumed); assay: as above
T4 construct: Non-target panel protein
Procedure: as §1

[6] = biological target: T5, hICAM1 (human, UniProt P05362 28-480, limits assumed); assay: as above
T5 construct: Non-target panel protein
T5 sequence (P05362 28-480 limits assumed): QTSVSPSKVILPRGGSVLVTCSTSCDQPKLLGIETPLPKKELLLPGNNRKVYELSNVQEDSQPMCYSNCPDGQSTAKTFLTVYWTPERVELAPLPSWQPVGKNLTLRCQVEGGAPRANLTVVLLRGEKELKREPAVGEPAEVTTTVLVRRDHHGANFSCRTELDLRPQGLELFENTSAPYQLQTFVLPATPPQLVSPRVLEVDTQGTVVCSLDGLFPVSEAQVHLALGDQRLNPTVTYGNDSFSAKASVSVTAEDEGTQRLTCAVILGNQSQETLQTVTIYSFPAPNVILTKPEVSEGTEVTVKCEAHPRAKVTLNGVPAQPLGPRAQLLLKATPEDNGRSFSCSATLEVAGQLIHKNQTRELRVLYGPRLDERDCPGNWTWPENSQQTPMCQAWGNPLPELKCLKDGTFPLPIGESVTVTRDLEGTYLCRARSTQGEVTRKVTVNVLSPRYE
Procedure: as §1

[7] = biological target: T6, HSA (UniProt P02768 25-609); assay: as above
T6 construct: Non-target panel protein (albumins)
T6 sequence (P02768 25-609): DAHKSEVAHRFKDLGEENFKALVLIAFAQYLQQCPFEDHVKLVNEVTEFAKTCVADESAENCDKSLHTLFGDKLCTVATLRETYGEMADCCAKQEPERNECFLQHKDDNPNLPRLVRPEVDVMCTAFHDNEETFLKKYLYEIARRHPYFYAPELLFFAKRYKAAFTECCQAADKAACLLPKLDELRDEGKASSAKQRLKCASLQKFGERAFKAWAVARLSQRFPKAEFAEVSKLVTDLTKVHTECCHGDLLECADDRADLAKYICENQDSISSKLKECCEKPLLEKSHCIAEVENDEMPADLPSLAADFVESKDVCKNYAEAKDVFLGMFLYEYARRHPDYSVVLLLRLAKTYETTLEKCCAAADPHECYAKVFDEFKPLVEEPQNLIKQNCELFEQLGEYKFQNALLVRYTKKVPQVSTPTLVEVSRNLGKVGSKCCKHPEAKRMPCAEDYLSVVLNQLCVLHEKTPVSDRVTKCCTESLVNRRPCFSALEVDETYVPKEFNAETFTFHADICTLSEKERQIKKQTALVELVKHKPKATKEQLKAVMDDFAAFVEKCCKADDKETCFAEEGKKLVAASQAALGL
Procedure: as §1

[8] = biological target: T7, mICAM2 (mouse, UniProt P35330 23-222, limits assumed); assay: as above
T7 construct: Non-target panel protein
T7 sequence (looked up): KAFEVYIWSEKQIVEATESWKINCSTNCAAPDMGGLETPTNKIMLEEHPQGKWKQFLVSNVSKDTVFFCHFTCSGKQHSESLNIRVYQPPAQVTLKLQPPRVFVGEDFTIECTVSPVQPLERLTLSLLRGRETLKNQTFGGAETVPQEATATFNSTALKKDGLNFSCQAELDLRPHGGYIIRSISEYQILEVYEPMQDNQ
Procedure: as §1

[9] = biological target: T8, mTRKB (mouse, UniProt P15209 32-429, limits assumed); assay: as above
T8 construct: Non-target panel protein
T8 sequence (P15209 32-429 limits assumed): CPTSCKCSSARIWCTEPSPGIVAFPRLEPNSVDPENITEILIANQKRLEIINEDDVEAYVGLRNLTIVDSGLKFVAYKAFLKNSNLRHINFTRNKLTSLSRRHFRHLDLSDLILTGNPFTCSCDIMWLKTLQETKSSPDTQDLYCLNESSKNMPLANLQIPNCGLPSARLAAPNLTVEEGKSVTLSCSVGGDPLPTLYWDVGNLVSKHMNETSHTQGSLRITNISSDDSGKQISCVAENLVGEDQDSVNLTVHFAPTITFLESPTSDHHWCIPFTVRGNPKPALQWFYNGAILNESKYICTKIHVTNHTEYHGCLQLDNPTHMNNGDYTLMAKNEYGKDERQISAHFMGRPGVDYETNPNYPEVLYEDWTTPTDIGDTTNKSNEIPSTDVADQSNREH
Procedure: as §1

[10] = biological target: T9, BSA (UniProt P02769 25-607); assay: as above
T9 construct: Non-target panel protein (albumins)
T9 sequence (P02769 25-607 limits assumed): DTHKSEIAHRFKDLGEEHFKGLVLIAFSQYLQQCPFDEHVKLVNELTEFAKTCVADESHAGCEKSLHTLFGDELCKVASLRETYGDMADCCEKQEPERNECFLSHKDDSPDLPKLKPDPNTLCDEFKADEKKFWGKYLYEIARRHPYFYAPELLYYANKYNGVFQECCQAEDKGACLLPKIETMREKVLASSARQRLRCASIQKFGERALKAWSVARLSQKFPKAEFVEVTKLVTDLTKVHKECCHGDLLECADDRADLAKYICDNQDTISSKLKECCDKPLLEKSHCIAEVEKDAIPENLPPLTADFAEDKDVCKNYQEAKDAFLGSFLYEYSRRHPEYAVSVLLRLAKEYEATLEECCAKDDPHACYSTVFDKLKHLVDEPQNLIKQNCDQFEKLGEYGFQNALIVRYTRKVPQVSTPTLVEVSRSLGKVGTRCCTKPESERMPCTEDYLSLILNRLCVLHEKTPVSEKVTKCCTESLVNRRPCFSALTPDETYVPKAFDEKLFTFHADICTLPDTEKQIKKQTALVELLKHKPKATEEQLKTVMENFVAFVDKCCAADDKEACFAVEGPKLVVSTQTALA
Procedure: as §1

[11] = biological target: T10, hCD33 (human, UniProt P20138 18-259, limits assumed); assay: as above
T10 construct: Non-target panel protein
T10 sequence (P20138 18-259 limits assumed): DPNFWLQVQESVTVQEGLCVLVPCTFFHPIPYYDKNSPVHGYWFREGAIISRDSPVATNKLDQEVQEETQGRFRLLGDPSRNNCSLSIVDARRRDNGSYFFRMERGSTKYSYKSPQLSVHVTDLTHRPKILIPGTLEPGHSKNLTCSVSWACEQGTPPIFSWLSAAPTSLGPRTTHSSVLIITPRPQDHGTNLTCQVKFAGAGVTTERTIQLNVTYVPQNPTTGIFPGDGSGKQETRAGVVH
Procedure: as §1

[12] = biological target: T11, hFceR1 (human, UniProt P12319 26-205); assay: as above
T11 construct: Non-target panel protein
T11 sequence (alpha): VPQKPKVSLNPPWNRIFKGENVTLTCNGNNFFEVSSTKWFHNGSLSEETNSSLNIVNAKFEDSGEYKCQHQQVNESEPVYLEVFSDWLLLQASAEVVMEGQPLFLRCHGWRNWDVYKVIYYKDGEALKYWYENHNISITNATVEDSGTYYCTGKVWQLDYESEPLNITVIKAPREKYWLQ
Procedure: as §1

[13] = biological target: T2, RAGE (cognate target of the anti-RAGE …); assay: Biacore SPR
Procedure: ABS leads in human IgG1 format were analyzed for specificity and stability.
as §2

T1 sequence (Q62151 24-342 limits assumed): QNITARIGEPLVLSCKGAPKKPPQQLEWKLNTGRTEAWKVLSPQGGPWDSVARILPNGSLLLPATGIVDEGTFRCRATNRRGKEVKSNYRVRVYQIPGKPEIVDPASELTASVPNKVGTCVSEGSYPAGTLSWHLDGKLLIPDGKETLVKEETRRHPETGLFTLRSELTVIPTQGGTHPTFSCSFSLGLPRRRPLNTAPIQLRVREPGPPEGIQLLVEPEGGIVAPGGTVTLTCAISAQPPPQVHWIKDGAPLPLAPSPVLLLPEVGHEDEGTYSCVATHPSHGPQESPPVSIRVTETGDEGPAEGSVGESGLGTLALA

binding result [1]: binds
Kd [2]: 17 nM
binding result [3]: no binding (tested: 500 nM)
binding result [4]: no binding (tested: 500 nM)
binding result [5]: no binding (tested: 500 nM)
binding result [6]: no binding (tested: 500 nM)
binding result [7]: no binding (tested: 500 nM)
binding result [8]: no binding (tested: 500 nM)
binding result [9]: no binding (tested: 500 nM)
binding result [10]: no binding (tested: 500 nM)
binding result [11]: no binding (tested: 500 nM)
binding result [12]: no binding (tested: 500 nM)
fold affinity improvement over Par-RAGE [13]: ~2 fold
B1: C7-ABS-RAGE IgG (human IgG1) (antibody, V domains shown)
VH: EVQLVESGGGLVQPGGSLRLSCAASGFTFSSYWMSWVRQAPGKGLEWVASIDQDGSNKYYPDSVKGRFTISRDNAKNSLYLQMNSLRAEDTAVYYCARGGDITTGLDYWGQGTLVTVSS
VL: DIQMTQSPSSLSASVGDRVTITCRASQSIGSYLNWYQQKPGKAPKLLIYRASSLASGVPSRFSGSGSGTDFTLTISSLQPEDFATYYCLEFDEHPLTFGGGTKVEIK
notes: Human IgG1 format
